Measurements: the DeepSol protein solubility set

Assay: soluble on expression in E. coli; label from the status in PepcDB or PDB records

Soluble on expression in E. coli, not soluble:
MGSDKIHHHHHHMYPFVDRKEELKALKERLTRENFELIVIYGRRRVGKTRLVLEAVRDLPHVYYLAVEGNNLRHFRETAERVFPEVRYSREDWEGTLHALKGKIIVIDEFPNLIKENPRVLSLFQRVIDLDLSNSNTKMILLGSSVSMMTEKVLSYKSPLYGRRTGSMKLKPMGFFSLRVFFPTASWEELVEIYGMTDGIPFYITQVKLPFWEWLEEELSSPVSFFRDEVDFLLKYEFSEVSTYKRILEAIALGKTTPKEIRDFTGLRHSDISPYLRNLIEADLIVREVPVTEKGTSKRGRYYIADNFLAFWFRFIFPNLSRIEEGTFSVEEIRDSYDHYLGLVFEKVARQFLVKLNKAGNLPFKFTKIGRWWHKNEEIDLVALNEREKRALFVEVKWKSLSGREARGILWDLERKSELVGLEGWEKHYGLVAKEIRNKNALKSEGWLVWDLGDFERLISPGEISYL
MGSDKIHHHHHHNENPDKPTDDVNYNMNEPRLASTLRGGLIIEGNVEQRLKPLQIDFYSQMTVDGGGWGTKNYIQDDEWNNLVWEEYLKQIASINIVIRSLTEKDKDAYANTIAFARIWRVYVHTLAADKFGPMPFPAYEIVEANPPYKSLKDIYDEYFRELDAAINGFNDSAQPIFSDAGIDLIYKNDVSKWKRFANSLRLRLAVRLTEVDQEKCIAEANAAISSPAGLISDKADNAYMPPKADGSWGQDYNYTMFQITWSGPICMSKSVEKLVTNIGGVAWPQGVVNQTSGVAVSSVHPEKVDPRAPKIFQPGIENGDWKGLVYGPKAEEANTGIYQSKQCAELGFIIKDGYPYKSRPYDLFLSEEVHFLKAELYARGFIAGDAKSEYEAGVRASFATWGVTSEVDDYLTSTEKNEAGTSARYDDQQGAGNTALEKIITQKYIAGIPDLAQEGWNDKRRLNLPRLDVAVYRDQAVYNNNDKDILKSANFIKRMRYPTKESLINATEYEKGKSMLGGKGDIVSTPLWWDKNSNYCTSSK
MGSDKIHHHHHHNKIPTTMAFRTVTDVDNAVNGLYDLMSGSGYYGAAMFAYGDMKGDDMQSSEESGVCNTCYMFNHRPNSLNAGSLWGRPFYILREAWNILNAIAEGKIESGDEKKLNALKGETMAVIALCQFDLTRCFGYPYTKDKGASLGAPLIDHLVGTYENPPRSTVAQAYDFIIETLEEAVTLMSEEKNNGRMNKYAARALLARIYLYHDDNRKAFDLADQLIKDADTSGSYALYPHEKYVAAWSVEAKFGSESFFEIANSVDDTPGRDSWGYLLNWYGYQKGFVTQKYAEQMLADPGDVRGHLLEENKYAGKTVWWLYKLRGTDLKTAPLECNNVVLRLSEVYLIAAEAGCKLGGDAAVQGLGYLNEIVKRGNPDNEVTMADYTLDRVLDERSKELVGEGHRFFDLLRNGKTIVRKGGYHLPSVDEEVDWDFYKCVLPIPEDQFIFSPEMEQNPGYPKN
MGSDKIHHHHHHNQFSVKCWLRYIEFKQGAPKPRLNQLYERALKLLPCSYKLWYRYLKARRAQVKHRCVTDPAYEDVNNCHERAFVFMHKMPRLWLDYCQFLMDQGRVTHTRRTFDRALRALPITQHSRIWPLYLRFLRSHPLPETAVRGYRRFLKLSPESAEEYIEYLKSSDRLDEAAQRLATVVNDERFVSKAGKSNYQLWHELCDLISQNPDKVQSLNVDAIIRGGLTRFTDQLGKLWCSLADYYIRSGHFEKARDVYEEAIRTVMTVRDFTQVFDSYAQFEESMIAAKMETASELGREEEDDVDLELRLARFEQLISRRPLLLNSVLLRQNPHHVHEWHKRVALHQGRPREIINTYTEAVQTVDPFKATGKPHTLWVAFAKFYEDNGQLDDARVILEKATKVNFKQVDDLASVWCQCGELELRHENYDEALRLLRKATALPARRAEYFDGSEPVQNRVYKSLKVWSMLADLEESLGTFQSTKAVYDRILDLRIATPQIVINYAMFLEEHKYFEESFKAYERGISLFKWPNVSDIWSTYLTKFIARYGGRKLERARDLFEQALDGCPPKYAKTLYLLYAQLEEEWGLARHAMAVYERATRAVEPAQQYDMFNIYIKRAAEIYGVTHTRGIYQKAIEVLSDEHAREMCLRFADMECKLGEIDRARAIYSFCSQICDPRTTGAFWQTWKDFEVRHGNEDTIKEMLRIRRSVQATYNTQVNFMASQMLKVSGSATGTVSDLAPGQSGMDDMKLLEQRAEQLAAEAERDQPLRAQSKILFVRSDASREELAELAQQVNPEEIQLGEDEDEDEMDLEPNEVRLEQQSVPAAVFGSLKED
MGSDKIHHHHHHPEQIEKYPSIYPDYIGVTIPATIAPMNFSYTDTSYERIDVIVKGHQGKEVHINAKHVNFPEKEWKQLLNSNQGDSLLFTVSIKQKGKWSTYKPFPMYISPHPIDYGLVYRKIAPGYEVYSRMGIYERDLSSHKERPLVENTLVKGMCVNCHAFNRTDPSHFSLHIRGTHGATFMRTGNKDEYLNTKTDQTIAACVYPYWHPGGEYIAYSTNNTRQSFHTVKDERVEVLDLESDVVVYHPADHHLLLCDSLQKKDRFETFPAFSPDGRTLYFCSAEAKKIPEEYKEIRYNLCSIDFDPSTGTFGSRIDTLVNAEALGKSVSFPRPSYDGKYIMFTLSDYGNFSIWHKEANLWLLDLTSGDLRELSEVNSDDTESFHNWSSNSRWFVFSSRRGDGLYTRLYLASMDENGKISKPFLLPQEDPETYYDRSVYSYNVPDFVNAPILLDTKVFEKRITSKERIQVQVGN
MGSDKIHHHHHHQAEPAPLASAGPAANDPLEGFNRASFKLGMGLDRALLAPITHGYMAVTPRVVRDRVSLVIYNMGEPNTVMNQVLQGKPRQAVRSSTRFVVNSTVGVAGLFDVAAKMGLPPRGADFGQTFGRWGAGPGAYIYVPLMGPLNVRDGVGRALDIVTDPVSLFVGGLDTDFGRARTAITVVDLRATTDSAYEALKDASDPYVTTRSAYAQYREAFVREATGESEALPDFDAPPSEPNTSSATPNP
MGSDKIHHHHHHQNTPIGENIELAGENPEELKVIYINKDVSTHFIAMEDIKYVDISVNDIVGDIPTGNSLRIKPTKEGASGVITIVTERFFVQYMLVYSSDLAKAYTRFNIPYADLRSYMNPEVNLTKAQMYDYAHRMFISKNKFYDVSSTSNLMKIVLNNIYTLDKYFFIDISMINKTKIRYDIDQIRFKIEDKKQTKATNFQSIEILPLMQVNKNLVFKKNYRNIFVFEKFTFPDEKVLTIEISEKQISGRTITLRIDYADILHADAFTE
MGSDKIHHHHHHRNGKTYTQPLTGQATDKIGEQIRELFNIDINPNGPAVKANNYVSTYMKRLYKQLENYEHGENHNEEEVNAWLSADRIVSHMAQEVSHRLDDGSYSIRFAKEHVPAKEGQSIVRAQLRIHIQGIVSPVFFYIEDTNLPGDTVLVSSDDPTVVTDVTTMVDRWSHLQLSTLPIVTARASTNDELKIEAFLVIALKDEDAGPPKKRSR
MGSDKIHHHHHHSCDNKGDYWGAMESSKATLTLERICDMATLSQDSVELLSNILGMNTEELYRTDVVMIGKVTSEETGFYQYPRFLIAKDREMKEVLTEAYVHRDTEGTFYAFLESNMLPVGETYYCAMVDYNYGYNGRPGLLDHVLGGNTRGERYSEVKPFRLSGLPRLVVHDAHFTGYSFYLSAEVRFKSNGGIIEQGACYSSTKRIPTVDDQKTLARETRNYDYSFLEVEVTDLLPNTHYYIRPYVTTEEGTGYGPVVEFTTEPGTEPIIDYFTMYIDTDRSVNLYATFYIDNYQITHYGYSYGIYSPETGTVTDEQKIEVPLEDNHGQQLSKVITGLRPGILYAFRVYAENGVGVTYSGYQTVKIPVE
MGSDKIHHHHHHSDLNSNIKDDPYSGGKAPLGIGLLAESPSPESAYPNDTVVFKAKGMLNWCDPQSGRYDFKFYISDEETKIVTATDTTITVKVPGNLSSGTAYIVLKEQVFYGPRLTVLGNIKIDQSYGFKGTSGPIYDCAEHYSKARVYYPVGDYMQAYYNENSSQSFSCISMVLTDGSVSGKWVTDFKLDPGQGAGIDLANPGVTDIECYLNSFTYFPSDHRVLLSGKFSEYGWDKLPVNNITIATNEVASYYKTVALPSKKNNTSINCKIPVFNGGTLEAPVRTFITSNEKVVAVGNITNYCRINTEKSYAESMVLDYSKVASVLRMSRTGELDDSYRRDAEGVIGQILDACMVESDGIVIVGTFSSFDGQSVKNIVKLNAEGTLDETFMKNIGTGANGSITKIRYNKNKKKILITGEFSEFNGIPAQSVVMLNDDGTRDEIFKIGKMEGGLANFACLLDNDNIVVSGAFTKYDGVTRRGFLILGRDGKALQQFNVPGIFQGELYKVIETRTSTNSNGLLLLGDFSRFDGNMVRNAIMIEVDYE
MGSDKIHHHHHHSGEKKESASEKGVETVLPDTKNEVSVMTLKKQIFNHELVSNGKISARGMADLRFESGEVIAHIWVKNGDRVRKGQKLAELDKFKLDNQLSQSEDALKKSELELRDVLISQGYPADDISQVPEETMKLAKVKSGYDQSKSQYEMSKYNAEHATLTAPFDGVVANLFSKPYNLASTSDVFCTVIDMQGMEVDFTVLESELPLIKNGDKVVIKPYSDAATVHEGSISEINPLVDDKGMVKVKARVNGAGKLFSGMNVRVSVHRSLGEQLVIPKSAVVLRSGKQVVFTLKDGKMAQWNYIHTALENADSYSVADGLTEGDTVIVSGNINLAHEAPVTIIE
MGSDKIHHHHHHTDDEEKDNNGQGSVSVETNYLPIADPYVMFYNNKYYAYGTGGTTAGEGFACFSSDDLKNWKREGQALSATDSYGTWGFWAPEVYYVESKKKFYLFYSAEEHICVATSTTPEGPFRQEVKQPIWSEKSIDTSLFIDDDGTPYLYFVRFTDGNVIWVAQMTDDLMSIKTETLNQCIKAEVSWELLQGKVAEGPSLLKKNGVYYLIYSANHYENKGYGVGYATSDTPMGPWVKYSKNPLLQGDAATGLVGTGHGAPFQCKDGSWKYIFHAHWSAAEIQPRTSYIKDFAISDQGVVTISGTVIKPRVLK
MGSDKIHHHHHHTSCIEDEKDYSQIIETRVANCETSKDFSVPVKEGYTTFVTSGEDTLAMANEPITIRIPKNATISTRAEGDGINISYTILDEGSETTYAKVWQAIMFEDTQNGDYDYNDLIIHVKNTASNHAYQHPTETWQTIEIQPIALGSTKTIKLGCILSDGSTHMISDDVRTDLFGGRQGFINTVNDNDPIRYKLASTNIKNYAMPKKEKTSAAWVAWFIEVDGKRMYAASSDIDYKSYDMVNKENMPYGLAVSNGNGTFSYPQEKNSLFETYPGFSDWINGKVSSIGSFQKELVYKYCSGGIIGEDGKSHKIWDYLDLN
MGSDKIHHHHHHVAAESKTIAIALNNDFINNLDLSPASTVIEQLLRDGAASHEQQLRFDINYDLEPGDPRELSEIPEIRLWFVRLDAKYPWLAFLLDWKAGEFARYAAMLVPHQFSSQDGIQYNPEALEIFLMHKIFILGDWLKQQDIPSLSRLKSMAQMLGYELDDAFFEIF
MGSDKIHHHHHHVCRNCSNKQKIRKNSMDYTDISILHTNDMHSYMENFPKKAQLIANIRARNEKEGVPTFVFDSGDLFSGNIFFNMYRGVKEIELMNQIGCQAMTLGNHEFDHGDELISRLDDYAQFPIVSSNLRYQDVEVADELVPLEDVLEFDMNGKNLYVLGLTTLETQEVASPSENVIFEDHKQALRRLVDQIVSQNPSAHLVLLSHLGYDEDVHLAKDFPELNVILGGHTHTILKQPSQIGGVSICQAGQYGRFVGHLSLRCFADGRREVQAYDLIEVEKLTQEDRAVKAIIDQMKSERDAAFSKPIAILPQALDGERDSIRQGLSTLAPVICQALFEQASQLGLQADGAVINGFGIRASLSAGPIFYSDLVKVLPFSKRVLLVRIKGRDLLSSLQTGLHPQMWGIVQSGEDLLVNGRAVESDKDYQIVTNSFVWSGKDNYDDFHKAEIVQDLGLDIDIISEFFKRQYGG
